Reference: the supplement of paper PMC5998384

How the values were obtained:
[1] = system: HeLa Kyoto; assay: solubility in G1/S (NP-40 vs SDS abundance) (log2 ratio); higher = more soluble; conditions: cell cycle stage: G1/S
[2] = system: HeLa Kyoto; assay: melting temperature (median over replicates), in situ; higher = more thermally stable
[3] = system: HeLa Kyoto; assay: solubility change mitosis vs G1/S (difference of NP-40 vs SDS log2 ratios) (log2 ratio difference); higher = more soluble in mitosis
[4] = system: HeLa Kyoto; assay: thermal stability score vs G1/S (z-score of summed log2 fold changes over temperatures); higher = more thermally stable than in G1/S
[5] = cell cycle stage: early G1 (4.5 h after nocodazole release)
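Throughout, for melting temperature (median over replicates), in situ: HeLa Kyoto cells synchronized by double thymidine or nocodazole block, proteins quantified by TMT10plex mass spectrometry, three independent biological replicates.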
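Throughout, for solubility change mitosis vs G1/S (difference of NP-40 vs SDS log2 ratios): synchronized HeLa Kyoto cells (double thymidine block for G1/S, nocodazole release for mitosis), protein amounts in NP-40 versus SDS lysates quantified by mass spectrometry, three biological replicates.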
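Throughout, for solubility in G1/S (NP-40 vs SDS abundance): HeLa Kyoto cells arrested at G1/S by double thymidine block, proteins quantified by TMT10plex mass spectrometry in mild NP-40 versus SDS extracts, three biological replicates.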
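Throughout, for thermal stability score vs G1/S (z-score of summed log2 fold changes over temperatures): synchronized HeLa Kyoto cells, proteins quantified by TMT10plex mass spectrometry, three biological replicates, mitosis taken 0.5 h after nocodazole release, G1/S directly after double thymidine block.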

Sequence | solubility in G1/S (log2) [1] | melting temperature ([2]; cell cycle stage: G1/S) [°C] | melting temperature ([2]; cell cycle stage: mitosis) [°C] | solubility change mitosis (log2) [3] | thermal stability score [4, 5] | thermal stability score ([4]; cell cycle stage: mitosis)
MSSSPWEPATLRRVFVVGVGMTKFVKPGAENSRDYPDLAEEAGKKALADAQIPYSAVDQACVGYVFGDSTCGQRAIYHSLGMTGIPIINVNNNCATGSTALFMARQLIQGGVAECVLALGFEKMSKGSLGIKFSDRTIPTDKHVDLLINKYGLSAHPVAPQMFGYAGKEHMEKYGTKIEHFAKIGWKNHKHSVNNPYSQFQDEYSLDEVMASKEVFDFLTILQCCPTSDGAAAAILASEAFVQKYGLQSKAVEILAQEMMTDLPSSFEEKSIIKMVGFDMSKEAARKCYEKSGLTPNDIDVIELHDCFSTNELLTYEALGLCPEGQGATLVDRGDNTYGGKWVINPSGGLISKGHPLGATGLAQCAELCWQLRGEAGKRQVPGAKVALQHNLGIGGAVVVTLYKMGFPEAASSFRTHQIEAVPTSSASDGFKANLVFKEIEKKLEEEGEQFVKKIGGIFAFKVKDGPGGKEATWVVDVKNGKGSVLPNSDKKADCTITMADSDFLALMTGKMNPQSAFFQGKLKITGNMGLAMKLQNLQLQPGNAKL [SCP2] | 0.587 | 54.5 | 54.4 | 0.135 | -1.44 | -2.06
MSSVQQQPPPPRRVTNVGSLLLTPQENESLFTFLGKKCVTMSSAVVQLYAADRNCMWSKKCSGVACLVKDNPQRSYFLRIFDIKDGKLLWEQELYNNFVYNSPRGYFHTFAGDTCQVALNFANEEEAKKFRKAVTDLLGRRQRKSEKRRDPPNGPNLPMATVDIKNPEITTNRFYGPQVNNISHTKEKKKGKAKKKRLTKADIGTPSNFQHIGHVGWDPNTGFDLNNLDPELKNLFDMCGISEAQLKDRETSKVIYDFIEKTGGVEAVKNELRRQAPPPPPPSRGGPPPPPPPPHNSGPPPPPARGRGAPPPPPSRAPTAAPPPPPPSRPSVAVPPPPPNRMYPPPPPALPSSAPSGPPPPPPSVLGVGPVAPPPPPPPPPPPGPPPPPGLPSDGDHQVPTTAGNKAALLDQIREGAQLKKVEQNSRPVSCSGRDALLDQIRQGIQLKSVADGQESTPPTPAPTSGIVGALMEVMQKRSKAIHSSDEDEDEDDEEDFEDDDEWED [WASL] | 0.303 | 50.7 | 51.3 | -0.121 | 0.0343 | 1.24
MSTAAVPELKQISRVEAMRLGPGWSHSCHAMLYAANPGQLFGRIPMRFSVLMQMRFDGLLGFPGGFVDRRFWSLEDGLNRVLGLGLGCLRLTEADYLSSHLTEGPHRVVAHLYARQLTLEQLHAVEISAVHSRDHGLEVLGLVRVPLYTQKDRVGGFPNFLSNAFVSTAKCQLLFALKVLNMMPEEKLVEALAAATEKQKKALEKLLPASS [NUDT16L1] | -0.521 | 52 | 52.3 | 0.104 | -0.0688 | -2.32
MSTEGGFGGTSSSDAQQSLQSFWPRVMEEIRNLTVKDFRVQELPLARIKKIMKLDEDVKMISAEAPVLFAKAAQIFITELTLRAWIHTEDNKRRTLQRNDIAMAITKFDQFDFLIDIVPRDELKPPKRQEEVRQSVTPAEPVQYYFTLAQQPTAVQVQGQQQGQQTTSSTTTIQPGQIIIAQPQQGQTTPVTMQVGEGQQVQIVQAQPQGQAQQAQSGTGQTMQVMQQIITNTGEIQQIPVQLNAGQLQYIRLAQPVSGTQVVQGQIQTLATNAQQGQRNASQGKPRRCLKETLQITQTEVQQGQQQFSQFTDGQRNSVQQARVSELTGEAEPREVKATGNSTPCTSSLPTTHPPSHRAGASCVCCSQPQQSSTSPPPSDALQWVVVEVSGTPNQLETHRELHAPLPGMTSLSPLHPSQQLYQIQQVTMPAGQDLAQPMFIQSANQPSDGQAPQVTGD [NFYC] | 0.266 | 54.7 | 54.3 | -0.174 | -0.186 | -0.549
MSTGGDFGNPLRKFKLVFLGEQSVGKTSLITRFMYDSFDNTYQATIGIDFLSKTMYLEDRTVRLQLWDTAGQERFRSLIPSYIRDSTVAVVVYDITNVNSFQQTTKWIDDVRTERGSDVIIMLVGNKTDLADKRQVSIEEGERKAKELNVMFIETSAKAGYNVKQLFRRVAAALPGMESTQDRSREDMIDIKLEKPQEQPVSEGGCSC [RAB6A] | -0.0491 | 56.5 | 57.1 | -0.0808 | -2.97 | -6.05
MSTKQITCRYFMHGVCREGSQCLFSHDLANSKPSTICKYYQKGYCAYGTRCRYDHTRPSAAAGGAVGTMAHSVPSPAFHSPHPPSEVTASIVKTNSHEPGKREKRTLVLRDRNLSGMAERKTQPSMVSNPGSCSDPQPSPEMKPHSYLDAIRSGLDDVEASSSYSNEQQLCPYAAAGECRFGDACVYLHGEVCEICRLQVLHPFDPEQRKAHEKICMLTFEHEMEKAFAFQASQDKVCSICMEVILEKASASERRFGILSNCNHTYCLSCIRQWRCAKQFENPIIKSCPECRVISEFVIPSVYWVEDQNKKNELIEAFKQGMGKKACKYFEQGKGTCPFGSKCLYRHAYPDGRLAEPEKPRKQLSSQGTVRFFNSVRLWDFIENRESRHVPNNEDVDMTELGDLFMHLSGVESSEP [MKRN2] | 0.161 | 46.5 | 48.6 | -0.033 | 0.686 | 1.44
MSTSWSDRLQNAADMPANMDKHALKKYRREAYHRVFVNRSLAMEKIKCFGFDMDYTLAVYKSPEYESLGFELTVERLVSIGYPQELLSFAYDSTFPTRGLVFDTLYGNLLKVDAYGNLLVCAHGFNFIRGPETREQYPNKFIQRDDTERFYILNTLFNLPETYLLACLVDFFTNCPRYTSCETGFKDGDLFMSYRSMFQDVRDAVDWVHYKGSLKEKTVENLEKYVVKDGKLPLLLSRMKEVGKVFLATNSDYKYTDKIMTYLFDFPHGPKPGSSHRPWQSYFDLILVDARKPLFFGEGTVLRQVDTKTGKLKIGTYTGPLQHGIVYSGGSSDTICDLLGAKGKDILYIGDHIFGDILKSKKRQGWRTFLVIPELAQELHVWTDKSSLFEELQSLDIFLAELYKHLDSSSNERPDISSIQRRIKKVTHDMDMCYGMMGSLFRSGSRQTLFASQVMRYADLYAASFINLLYYPFSYLFRAAHVLMPHESTVEHTHVDINEMESPLATRNRTSVDFKDTDYKRHQLTRSISEIKPPNLFPLAPQEITHCHDEDDDEEEEEEEE [NT5C2] | -0.096 | 56.5 | 56.3 | -0.133 | -0.51 | -1.23
MSVSLVVIRLELAEHSPVPAGFGFSAAAGEMSDEEIKKTTLASAVACLEGKSPGEKVAIIHQHLGRREMTDVIIETMKSNPDELKTTVEERKSSEASPTAQRSKDHSKECINAAPDSPSKQLPDQISFFSGNPSVEIVHGIMHLYKTNKMTSLKEDVRRSAMLCILTVPAAMTSHDLMKFVAPFNEVIEQMKIIRDSTPNQYMVLIKFRAQADADSFYMTCNGRQFNSIEDDVCQLVYVERAEVLKSEDGASLPVMDLTELPKCTVCLERMDESVNGILTTLCNHSFHSQCLQRWDDTTCPVCRYCQTPEPVEENKCFECGVQENLWICLICGHIGCGRYVSRHAYKHFEETQHTYAMQLTNHRVWDYAGDNYVHRLVASKTDGKIVQYECEGDTCQEEKIDALQLEYSYLLTSQLESQRIYWENKIVRIEKDTAEEINNMKTKFKETIEKCDNLEHKLNDLLKEKQSVERKCTQLNTKVAKLTNELKEEQEMNKCLRANQVLLQNKLKEEERVLKETCDQKDLQITEIQEQLRDVMFYLETQQKINHLPAETRQEIQEGQINIAMASASSPASSGGSGKLPSRKGRSKRGK [BRAP] | 0.1 | 50.3 | 50.2 | -0.181 | 0.558 | 1.83
MSVVGLDVGSQSCYIAVARAGGIETIANEFSDRCTPSVISFGSKNRTIGVAAKNQQITHANNTVSNFKRFHGRAFNDPFIQKEKENLSYDLVPLKNGGVGIKVMYMGEEHLFSVEQITAMLLTKLKETAENSLKKPVTDCVISVPSFFTDAERRSVLDAAQIVGLNCLRLMNDMTAVALNYGIYKQDLPSLDEKPRIVVFVDMGHSAFQVSACAFNKGKLKVLGTAFDPFLGGKNFDEKLVEHFCAEFKTKYKLDAKSKIRALLRLYQECEKLKKLMSSNSTDLPLNIECFMNDKDVSGKMNRSQFEELCAELLQKIEVPLYSLLEQTHLKVEDVSAVEIVGGATRIPAVKERIAKFFGKDISTTLNADEAVARGCALQCAILSPAFKVREFSVTDAVPFPISLIWNHDSEDTEGVHEVFSRNHAAPFSKVLTFLRRGPFELEAFYSDPQGVPYPEAKIGRFVVQNVSAQKDGEKSRVKVKVRVNTHGIFTISTASMVEKVPTEENEMSSEADMECLNQRPPENPDTDKNVQQDNSEAGTQPQVQTDAQQTSQSPPSPELTSEENKIPDADKANEKKVDQPPEAKKPKIKVVNVELPIEANLVWQLGKDLLNMYIETEGKMIMQDKLEKERNDAKNAVEEYVYEFRDKLCGPYEKFICEQDHQNFLRLLTETEDWLYEEGEDQAKQAYVDKLEELMKIGTPVKVRFQEAEERPKMFEELGQRLQHYAKIAADFRNKDEKYNHIDESEMKKVEKSVNEVMEWMNNVMNAQAKKSLDQDPVVRAQEIKTKIKELNNTCEPVVTQPKPKIESPKLERTPNGPNIDKKEEDLEDKNNFGAEPPHQNGECYPNEKNSVNMDLD [HSPH1] | 0.203 | 50.2 | 49.7 | -0.0593 | 1.34 | 1.52
MSWFNASQLSSFAKQALSQAQKSIDRVLDIQEEEPSIWAETIPYGEPGISSPVSGGWDTSTWGLKSNTEPQSPPIASPKAITKPVRRTVVDESENFFSAFLSPTDVQTIQKSPVVSKPPAKSQRPEEEVKSSLHESLHIGQSRTPETTESQVKDSSLCVSGETLAAGTSSPKTEGKHEETVNKESDMKVPTVSLKVSESVIDVKTTMESISNTSTQSLTAETKDIALEPKEQKHEDRQSNTPSPPVSTFSSGTSTTSDIEVLDHESVISESSASSRQETTDSKSSLHLMQTSFQLLSASACPEYNRLDDFQKLTESCCSSDAFERIDSFSVQSLDSRSVSEINSDDELSGKGYALVPIIVNSSTPKSKTVESAEGKSEEVNETLVIPTEEAEMEESGRSATPVNCEQPDILVSSTPINEGQTVLDKVAEQCEPAESQPEALSEKEDVCKTVEFLNEKLEKREAQLLSLSKEKALLEEAFDNLKDEMFRVKEESSSISSLKDEFTQRIAEAEKKVQLACKERDAAKKEIKNIKEELATRLNSSETADLLKEKDEQIRGLMEEGEKLSKQQLHNSNIIKKLRAKDKENENMVAKLNKKVKELEEELQHLKQVLDGKEEVEKQHRENIKKLNSMVERQEKDLGRLQVDMDELEEKNRSIQAALDSAYKELTDLHKANAAKDSEAQEAALSREMKAKEELSAALEKAQEEARQQQETLAIQVGDLRLALQRTEQAAARKEDYLRHEIGELQQRLQEAENRNQELSQSVSSTTRPLLRQIENLQATLGSQTSSWEKLEKNLSDRLGESQTLLAAAVERERAATEELLANKIQMSSMESQNSLLRQENSRFQAQLESEKNRLCKLEDENNRYQVELENLKDEYVRTLEETRKEKTLLNSQLEMERMKVEQERKKAIFTQETIKEKERKPFSVSSTPTMSRSSSISGVDMAGLQTSFLSQDESHDHSFGPMPISANGSNLYDAVRMGAGSSIIENLQSQLKLREGEITHLQLEIGNLEKTRSIMAEELVKLTNQNDELEEKVKEIPKLRTQLRDLDQRYNTILQMYGEKAEEAEELRLDLEDVKNMYKTQIDELLRQSLS [TMF1] | 0.0833 | 54.5 | 54.4 | -0.065 | -2.48 | -0.992
